Values joined by “and” are separate entries in the source; they are usually repeats but may differ in a detail not shown here. Equal entries are not always repeated. Where two headings read alike, the source gives them in different places.
Legend:
SynIIIC = SynIIIC (Rattus norvegicus, UniProt O70441); test: isothermal titration calorimetry; assay type: binding
Tp0655 = target: T1, Tp0655 (Treponema pallidum, UniProt O83661); test: isothermal titration calorimetry; assay type: binding
T1 sequence (O83661 24-348): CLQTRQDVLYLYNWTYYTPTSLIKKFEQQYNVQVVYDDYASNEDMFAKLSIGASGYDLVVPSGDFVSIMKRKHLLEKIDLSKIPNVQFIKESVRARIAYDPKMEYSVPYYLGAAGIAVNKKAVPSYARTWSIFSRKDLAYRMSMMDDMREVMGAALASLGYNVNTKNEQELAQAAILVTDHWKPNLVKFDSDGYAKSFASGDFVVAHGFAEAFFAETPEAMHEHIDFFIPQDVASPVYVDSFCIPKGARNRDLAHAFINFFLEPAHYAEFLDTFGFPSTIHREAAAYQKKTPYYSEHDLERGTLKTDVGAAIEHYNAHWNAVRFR

HIF2α = HIF2α (Homo sapiens, UniProt Q99814); test: isothermal titration calorimetry; assay type: binding
[1] = target: bovine α-chymotrypsin (bovine); test: ITC
[2] = target: bovine α-chymotrypsin (bovine); test: ITC; remark: listed apart in the source
[3] = target: bovine α-chymotrypsin (bovine); test: ITC; remark: listed apart in the source
hLF = hLF (UniProt P02788); test: ITC
Sequence of hLF (P02788 20-710): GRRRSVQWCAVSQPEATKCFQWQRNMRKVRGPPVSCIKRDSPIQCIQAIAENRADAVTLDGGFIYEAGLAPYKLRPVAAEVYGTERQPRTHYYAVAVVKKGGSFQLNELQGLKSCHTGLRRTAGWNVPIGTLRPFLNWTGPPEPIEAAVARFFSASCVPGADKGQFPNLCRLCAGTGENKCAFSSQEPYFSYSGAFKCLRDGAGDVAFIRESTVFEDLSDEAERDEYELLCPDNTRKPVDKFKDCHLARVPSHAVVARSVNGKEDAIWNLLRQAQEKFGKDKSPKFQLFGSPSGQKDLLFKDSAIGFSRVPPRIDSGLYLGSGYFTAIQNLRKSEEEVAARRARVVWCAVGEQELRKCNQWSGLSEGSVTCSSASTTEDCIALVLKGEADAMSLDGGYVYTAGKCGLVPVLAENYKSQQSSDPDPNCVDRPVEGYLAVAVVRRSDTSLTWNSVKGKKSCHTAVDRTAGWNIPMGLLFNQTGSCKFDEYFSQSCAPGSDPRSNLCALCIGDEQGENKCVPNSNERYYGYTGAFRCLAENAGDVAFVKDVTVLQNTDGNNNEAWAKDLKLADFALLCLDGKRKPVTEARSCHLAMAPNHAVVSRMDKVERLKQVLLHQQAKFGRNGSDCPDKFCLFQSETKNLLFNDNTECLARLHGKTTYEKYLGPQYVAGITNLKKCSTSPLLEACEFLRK

Sequence of HIF2α (Q99814 239-350): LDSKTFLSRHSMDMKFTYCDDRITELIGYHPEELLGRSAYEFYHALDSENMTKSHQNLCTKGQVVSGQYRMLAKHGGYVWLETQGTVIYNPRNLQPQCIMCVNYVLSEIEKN
Sequence of SynIIIC (O70441 89-403): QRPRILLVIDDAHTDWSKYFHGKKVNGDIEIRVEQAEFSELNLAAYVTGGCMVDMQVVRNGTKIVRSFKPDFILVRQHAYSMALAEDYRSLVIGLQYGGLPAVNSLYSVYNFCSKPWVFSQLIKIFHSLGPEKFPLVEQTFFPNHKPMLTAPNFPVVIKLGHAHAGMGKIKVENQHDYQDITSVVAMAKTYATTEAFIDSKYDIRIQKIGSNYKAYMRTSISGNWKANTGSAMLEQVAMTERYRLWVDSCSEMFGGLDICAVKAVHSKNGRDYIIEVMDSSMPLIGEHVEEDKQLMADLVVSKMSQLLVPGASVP

Question: With `Nc1ncnc2c1ncn2[C@@H]1O[C@H](COP(=O)(O)OP(=O)(O)OP(=O)(O)O)[C@@H](O)[C@H]1O` [ATP] as the compound, how does the Kd (SynIIIC) read?
Answer: Its Kd is 0.136 µM.

Question: For `NCCCN` [DAP], which Kd (Tp0655) is on record?
Answer: Its Kd is 36.2 µM.

Question: With `O=[N+]([O-])c1c(Nc2cc(F)cc(Cl)c2)ccc2nonc12` [HBA, N-(3-Chloro-5-fluorophenyl)-4-nitrobenzo[c][1,2, 5]oxadiazol-5-amine] as the compound, how does the Kd (HIF2α) read?
Answer: The Kd was 0.105 µM.

Question: `NCCCCN` [Putrescine] was tested. Which Kd (Tp0655) did it give?
Answer: Its Kd is 0.117 µM.

Question: With `NCCCCNCCCN` [Spermidine] as the compound, how does the Kd (Tp0655) read?
Answer: The Kd was 2.37 µM.

Question: How did the dH [1] turn out when “Soybean trypsin inhibitor (from UniProt P01070 25-205) (natural protein)” was run?
Answer: The dH was 10.5 kcal/mol (2×) and 10.3 kcal/mol.

Question: What about the logKa [1] of the same compound?
Answer: The logKa was 6.99 and 7 and 6.9.

Question: What about the dH [2] of the same compound?
Answer: Its dH is 10.5 kcal/mol (2×) and 10.4 kcal/mol.

Question: And the log(Ka) [2]?
Answer: Its log(Ka) is 6.89 and 6.98 and 7.

Question: What about the dH [3] of the same compound?
Answer: The dH was 10.3 kcal/mol and 10.9 kcal/mol and 9.7 kcal/mol.

Question: And the logKa [3]?
Answer: Its logKa is 7.27.

Question: How did the dH (hLF) turn out when “Tp34 (files named H70ATp34hLF...) (from UniProt P19478 20-204) (natural protein)” was run?
Answer: The dH was 4.9 kcal/mol.

Question: With “Tp34 (from UniProt P19478 20-204) (natural protein)” as the compound, how does the Kd (hLF) read?
Answer: The Kd was 11.3 µM and 11 µM and 22.3 µM.

Question: And the log(Ka) (hLF)?
Answer: The log(Ka) was 4.95.

Question: What about the logKa (hLF) of the same compound?
Answer: Its logKa is 4.96 and 4.65.
